Reference: article PMC5857972 (2018)

Columns and labels:
[1] = biological target: Pertuzumab Vκ1|VH3 whole IgG1 (original pairing); test: BLI; Octet QKe; antibody captured by its Fc on Anti-Human Fc Capture (AHC) biosensor, Her2 in solution; KD calculated from Kon and Koff by the Octet software; triplicates
[2] = biological target: extracellular portion of the human FcγIIA (human) (UniProt P12318); test: BLI
[3] = biological target: T1, extracellular portion of the human FcγIIA (human, UniProt P12318-1 34-215); test: BLI
T1 chain: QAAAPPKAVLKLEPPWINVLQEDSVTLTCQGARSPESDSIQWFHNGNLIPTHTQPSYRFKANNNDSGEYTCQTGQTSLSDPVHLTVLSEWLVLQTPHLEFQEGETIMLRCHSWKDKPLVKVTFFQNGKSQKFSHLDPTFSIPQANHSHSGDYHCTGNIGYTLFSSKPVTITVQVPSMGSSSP

[4] = biological target: T1, extracellular portion of the human …; test: BLI

Her2 (from UniProt P04626 23-1255) (natural protein)
Kd [1]: 0.87 nM

Pertuzumab Vκ1|VH2 whole IgG1 variant (from UniProt P01857)
Kd [2]: 4.74 nM

Pertuzumab Vκ2|VH2 whole IgG1 variant (from UniProt P01857)
Kd [2]: 4.99 nM

Pertuzumab Vκ2|VH6 whole IgG1 variant (from UniProt P01857)
Kd [2]: 3.94 nM

Pertuzumab Vκ3|VH1 whole IgG1 variant (from UniProt P01857)
Kd [2]: 11.5 nM

Pertuzumab Vκ3|VH3 whole IgG1 variant (from UniProt P01857)
Kd [2]: 23.7 nM

Pertuzumab Vκ4|VH1 whole IgG1 variant (from UniProt P01857)
Kd [2]: 116 nM

Pertuzumab Vκ4|VH2 whole IgG1 variant (from UniProt P01857)
Kd [2]: 3.33 nM

Pertuzumab Vκ5|VH3 whole IgG1 variant (from UniProt P01857)
Kd [2]: 15.7 nM

Pertuzumab Vκ6|VH5 whole IgG1 variant (from UniProt P01857)
Kd [2]: 83 nM

Pertuzumab Vκ6|VH7 whole IgG1 variant (from UniProt P01857)
Kd [2]: 72.7 nM

Trastuzumab Vκ2|VH6 whole IgG1 variant (from UniProt P01857)
Kd [2]: 14.7 nM

Trastuzumab Vκ3|VH1 whole IgG1 variant (from UniProt P01857)
Kd [2]: 9.3 nM

Trastuzumab Vκ6|VH1 whole IgG1 variant (from UniProt P01857)
Kd [2]: 47.9 nM

Trastuzumab Vκ6|VH4 whole IgG1 variant (from UniProt P01857)
Kd [2]: 30 nM

Trastuzumab Vκ6|VH5 whole IgG1 variant (from UniProt P01857)
Kd [2]: 12.5 nM

Trastuzumab Vκ6|VH6 whole IgG1 variant (from UniProt P01857)
Kd [2]: 39.7 nM

B1: Pertuzumab Vκ1|VH3 whole IgG1 (original pairing) (antibody, V domains shown)
VH: EVQLVESGGGLVQPGGSLRLSCAASGFTFTDYTMDWVRQAPGKGLEWVADVNPNSGGSIYNQRFKGRFTLSVDRSKNTLYLQMNSLRAEDTAVYYCARNLGPSFYFDYWGQGTLVTVSS
VL: DIQMTQSPSSLSASVGDRVTITCKASQDVSIGVAWYQQKPGKAPKLLIYSASYRYTGVPSRFSGSGSGTDFTLTISSLQPEDFATYYCQQYYIYPYTFGQGTKVEIK
Kd [3]: 9.31 nM
koff [4]: 0.00154 s⁻¹
